The text below walks through data of patent US20190330277A1.

The target of experiment [1] is 391-2-DS-Cav1-BZGJ9deleteFS. Kind of experiment: ELISA, variant from culture supernatant on Ni-NTA plate [continued]. A general note: In an ELISA, binding on a coated surface is turned into a signal by an enzyme label.
Experiment [2] has as its target 391-2-DS-Cav1-sc9 99C-362C. The experiment can be described thus: ELISA, variant from culture supernatant on Ni-NTA plate.
For experiment [3], the target named is RB94 sc9 DS-CAV1 N183GC-N428C L373R Long. Described as above.
Experiment [4] deals with 391-2-DS-Cav1-sc9 99C-361C. The experiment is described as above.
The target in experiment [5] is RB94 sc9 DS-CAV1 N183GC-N428C L373R Long K226L. The description is as above.
For experiment [6], the target named is RB94 sc9 DS-CAV1 N183GC-N428C L373R. The experiment is described as above.
In experiment [7] the target is 391-2-DS-Cav1_ sc9_I28C-G464C. The experiment is described as above.
The target in experiment [8] is 391-2-DS-Cav1-sc9deleteFS 98C-362C. The experiment is described as above.
The target of experiment [9] is 391-2-DS-Cav1-sc9 100C-362C. The description is as above.
The target in experiment [10] is 391-2 sc9 DS-Cav1 98C-362C. The experiment is described as above.

Regarding D25 antibody, the ELISA binding value in [1] stood at 0.119; in experiment [2], 0.249; in experiment [3], 0.26; in [4] it was 0.225; in [5], 0.206; in experiment [6], 0.187. Further, the ELISA binding value was determined as 0.202 in [7], 0.362 in [8], 0.274 in experiment [9] and 0.433 in experiment [10].
